Reference: patent publication WO2000075333A1 (dated 2000)

Biological target: T1, CD20 (human, UniProt P11836 1-297)
T1 construct: whole, on cells; also called CD20 antigen; CD20-positive Ramos cell line
T1 sequence (looked up): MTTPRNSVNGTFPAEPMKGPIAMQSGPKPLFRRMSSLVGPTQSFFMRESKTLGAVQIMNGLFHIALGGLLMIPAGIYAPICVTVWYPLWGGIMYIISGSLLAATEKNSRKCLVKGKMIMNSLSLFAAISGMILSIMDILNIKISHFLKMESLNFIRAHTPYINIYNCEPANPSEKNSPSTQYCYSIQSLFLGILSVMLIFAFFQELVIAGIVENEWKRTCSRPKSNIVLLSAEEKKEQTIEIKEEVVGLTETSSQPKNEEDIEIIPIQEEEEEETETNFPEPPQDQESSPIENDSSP
Assay: saturation binding of radiolabeled mAb to Ramos cells (10^7 cells), nonlinear regression, concentrations adjusted for immunoreactivity

B1: B9E9 mAb (antibody, V domains shown)
VH: QVQLVQSGAELVKPGASVKMSCKASGYTFTSYNMHWVKQTPGQGLEWIGAIYPGNGDTSYNQKFKGKATLTADKSSSTAYMQLSSLTSEDSAVYYCARAQLRPNYWYFDVWGAGTTVTVSS
VL: DIVLSQSPAILSASPGEKVTMTCRASSSVSYMHWYQQKPGSSPKPWIYATSNLASGVPARFSGSGSGTSYSLTISRVEAEDAATYYCQQWISNPPTFGAGTKLELK
- Kd: 9.75 nM
